Assay results taken from patent publication US11525133 (dated 2022).

Target: p53-TPR2
Experiment: ITC

B1: Mdm2 N-terminal domain (other)
chain: SQIPASEQETLVRPKPLLLKLLKSVGAQKDTYTMKEVLFYLGQYIMTKRLYDEKQQHIVYCSNDLLGDLFGVPSFSVKEHRKIYTMIYRNLVVVNQQESSDSGTSVSEN
  Kd: 54 nM
